The results in this text go back to US6657045 (NEW ENGLAND MEDICAL CENTER HOSPITALS, dated 2003).

In one test the target is T1, Glycine max agglutinin (Glycine max, UniProt P05046 33-285, biotinylated).
T1 construct: Lectin; also called SBA
The test is described as follows: biotinylated lectin blot of shed proteins.

The target of test [1] is T2, Ulex europeus agglutinin-1 (Ulex europeus, UniProt P22972 1-243, biotinylated).
T2 construct: Lectin; also called UEA-1
T2 sequence: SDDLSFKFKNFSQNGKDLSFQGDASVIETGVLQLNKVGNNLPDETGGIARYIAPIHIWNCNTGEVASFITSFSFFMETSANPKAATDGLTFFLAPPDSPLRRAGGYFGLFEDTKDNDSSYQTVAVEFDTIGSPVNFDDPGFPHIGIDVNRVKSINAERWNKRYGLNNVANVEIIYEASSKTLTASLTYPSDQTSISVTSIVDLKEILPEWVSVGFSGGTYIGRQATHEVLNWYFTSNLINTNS
The test is described as follows: biotinylated lectin blot of shed proteins.
Text: (§1) In order to determine the nature of the carbohydrates present, SP were probed with a panel of biotinylated lectins of varying sugar specificity (Table 1).

T1 sequence (P05046 33-285 limits assumed): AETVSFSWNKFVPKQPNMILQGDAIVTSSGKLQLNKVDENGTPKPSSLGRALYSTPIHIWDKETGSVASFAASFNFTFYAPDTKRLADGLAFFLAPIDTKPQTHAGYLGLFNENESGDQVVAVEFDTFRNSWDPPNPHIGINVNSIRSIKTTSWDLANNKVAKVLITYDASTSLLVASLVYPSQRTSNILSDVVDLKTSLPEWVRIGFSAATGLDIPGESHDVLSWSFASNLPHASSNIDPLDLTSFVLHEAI
Text for Glycine max agglutinin: as §1

B1: gp40 (native 40 kDa glycoprotein of Cryptosporidium parvum) (other)
chain: DVPVEGSSSSSSSSSSSSSSSSSSSTSTVAPANKARTGEDAEGSQDSSGTEASGSQGSEEEGSEDDGQTSAASQPTTPAQSEGATTETIEATPKEECGTSFVMWFGEGTPAATLKCGAYTIVYAPIKDQTDPAPRYISGEVTSVTFEKSDNTVKIKVNGQDFSTLSANSSSPTENGGSAGQASSRSRRSLSE
modifications: native glycoprotein: O-linked glycans with terminal α-linked GalNAc on Ser/Thr
notes: Native protein from oocysts, sporozoites, shed proteins or HPA-purified lysate; also called 40,000 Mr peptide; 40 kDa band
On to B1, for which the binding result (in the test with Glycine max agglutinin; in test [1]) was “binds” each time.
